Test in all cases: MST
The target in data set [1] is T1, Pcf1_KER (Schizosaccharomyces pombe, UniProt Q1MTN9 56-170).
T1 sequence: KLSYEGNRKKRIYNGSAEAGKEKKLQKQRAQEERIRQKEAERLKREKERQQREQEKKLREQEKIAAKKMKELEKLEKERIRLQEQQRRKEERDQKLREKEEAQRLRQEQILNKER

Data set [2] deals with T2, Pcf1_WHD (Schizosaccharomyces pombe, UniProt Q1MTN9 471-544).
T2 sequence: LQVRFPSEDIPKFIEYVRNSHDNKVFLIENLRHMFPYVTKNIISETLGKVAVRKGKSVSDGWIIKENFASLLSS

Data set [3] has as its target T3, Pcf1-ΔWHD;Pcf2;Pcf3 (Schizosaccharomyces …, UniProt Q1MTN9;O13985;Q9Y825 1-470;1-512;1-408, del471-544||).
T3 sequence 1: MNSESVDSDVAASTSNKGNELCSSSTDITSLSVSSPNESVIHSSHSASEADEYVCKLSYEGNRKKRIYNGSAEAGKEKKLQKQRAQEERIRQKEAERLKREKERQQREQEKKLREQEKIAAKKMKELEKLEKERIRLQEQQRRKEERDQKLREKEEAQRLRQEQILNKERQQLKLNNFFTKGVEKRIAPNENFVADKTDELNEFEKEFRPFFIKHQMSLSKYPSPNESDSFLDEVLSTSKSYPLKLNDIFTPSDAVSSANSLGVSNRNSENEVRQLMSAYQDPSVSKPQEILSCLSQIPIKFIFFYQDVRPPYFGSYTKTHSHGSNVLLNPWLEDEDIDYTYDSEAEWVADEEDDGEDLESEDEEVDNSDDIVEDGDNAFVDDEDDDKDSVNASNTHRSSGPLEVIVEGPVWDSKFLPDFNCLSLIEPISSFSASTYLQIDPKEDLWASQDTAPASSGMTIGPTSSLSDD
T3 sequence 2: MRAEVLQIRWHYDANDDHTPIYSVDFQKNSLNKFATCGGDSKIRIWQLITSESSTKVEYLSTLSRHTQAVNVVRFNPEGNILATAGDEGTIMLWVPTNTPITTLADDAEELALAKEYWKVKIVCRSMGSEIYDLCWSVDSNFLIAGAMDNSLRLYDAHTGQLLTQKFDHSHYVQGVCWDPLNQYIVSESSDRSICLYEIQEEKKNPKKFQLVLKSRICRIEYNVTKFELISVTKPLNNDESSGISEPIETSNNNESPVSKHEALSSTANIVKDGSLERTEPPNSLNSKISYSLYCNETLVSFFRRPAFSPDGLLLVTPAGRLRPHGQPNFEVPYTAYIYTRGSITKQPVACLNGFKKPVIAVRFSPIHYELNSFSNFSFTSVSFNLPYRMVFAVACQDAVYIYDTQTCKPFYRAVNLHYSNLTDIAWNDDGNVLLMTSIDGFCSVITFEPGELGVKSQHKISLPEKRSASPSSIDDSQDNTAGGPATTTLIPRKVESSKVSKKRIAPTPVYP
T3 sequence 3: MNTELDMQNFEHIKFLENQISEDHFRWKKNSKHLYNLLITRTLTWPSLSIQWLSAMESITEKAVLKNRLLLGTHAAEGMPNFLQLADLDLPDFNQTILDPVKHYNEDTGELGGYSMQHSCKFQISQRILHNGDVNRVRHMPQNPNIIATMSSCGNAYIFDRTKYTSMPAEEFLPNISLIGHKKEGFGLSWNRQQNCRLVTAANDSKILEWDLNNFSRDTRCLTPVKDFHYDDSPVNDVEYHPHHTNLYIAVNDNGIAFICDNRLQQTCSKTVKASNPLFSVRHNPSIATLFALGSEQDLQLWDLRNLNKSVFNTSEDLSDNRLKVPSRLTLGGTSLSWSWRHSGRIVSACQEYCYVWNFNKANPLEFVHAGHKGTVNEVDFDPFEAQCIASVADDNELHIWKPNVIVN

Data set [4] concerns the target T4, Pcf1-KER*;Pcf2;Pcf3 (Schizosaccharomyces …, UniProt Q1MTN9;O13985;Q9Y825 1-544;1-512;1-408, R147E;K150E;K154E;R161E;K168E||).
T4 sequence 1: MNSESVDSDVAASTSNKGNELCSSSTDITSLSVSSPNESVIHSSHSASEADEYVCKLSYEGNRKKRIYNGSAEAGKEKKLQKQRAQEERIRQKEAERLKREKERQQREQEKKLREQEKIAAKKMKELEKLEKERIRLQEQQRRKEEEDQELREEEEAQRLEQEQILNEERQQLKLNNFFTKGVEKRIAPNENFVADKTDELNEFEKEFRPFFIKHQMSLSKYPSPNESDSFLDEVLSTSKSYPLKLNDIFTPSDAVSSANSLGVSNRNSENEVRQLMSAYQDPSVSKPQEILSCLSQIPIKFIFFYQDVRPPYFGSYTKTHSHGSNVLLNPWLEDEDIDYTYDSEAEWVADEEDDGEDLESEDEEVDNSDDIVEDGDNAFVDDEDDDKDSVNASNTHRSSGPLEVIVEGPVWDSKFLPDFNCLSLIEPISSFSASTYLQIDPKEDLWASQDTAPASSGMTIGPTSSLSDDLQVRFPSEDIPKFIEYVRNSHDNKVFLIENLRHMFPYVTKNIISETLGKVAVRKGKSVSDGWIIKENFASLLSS
T4 sequence 2: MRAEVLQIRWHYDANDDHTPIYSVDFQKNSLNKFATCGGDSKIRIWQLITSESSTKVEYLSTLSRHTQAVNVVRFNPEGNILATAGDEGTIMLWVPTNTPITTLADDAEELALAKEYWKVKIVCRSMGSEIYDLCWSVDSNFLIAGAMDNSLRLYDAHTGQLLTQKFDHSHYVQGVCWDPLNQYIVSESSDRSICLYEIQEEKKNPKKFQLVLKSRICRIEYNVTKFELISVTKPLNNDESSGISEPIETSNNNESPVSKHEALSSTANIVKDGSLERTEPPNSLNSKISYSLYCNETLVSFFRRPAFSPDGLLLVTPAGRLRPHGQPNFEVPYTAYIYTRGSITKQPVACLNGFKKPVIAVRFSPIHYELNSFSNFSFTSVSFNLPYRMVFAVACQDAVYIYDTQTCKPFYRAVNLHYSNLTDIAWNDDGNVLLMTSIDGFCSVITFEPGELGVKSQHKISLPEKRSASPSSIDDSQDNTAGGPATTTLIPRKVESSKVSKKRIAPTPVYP
T4 sequence 3: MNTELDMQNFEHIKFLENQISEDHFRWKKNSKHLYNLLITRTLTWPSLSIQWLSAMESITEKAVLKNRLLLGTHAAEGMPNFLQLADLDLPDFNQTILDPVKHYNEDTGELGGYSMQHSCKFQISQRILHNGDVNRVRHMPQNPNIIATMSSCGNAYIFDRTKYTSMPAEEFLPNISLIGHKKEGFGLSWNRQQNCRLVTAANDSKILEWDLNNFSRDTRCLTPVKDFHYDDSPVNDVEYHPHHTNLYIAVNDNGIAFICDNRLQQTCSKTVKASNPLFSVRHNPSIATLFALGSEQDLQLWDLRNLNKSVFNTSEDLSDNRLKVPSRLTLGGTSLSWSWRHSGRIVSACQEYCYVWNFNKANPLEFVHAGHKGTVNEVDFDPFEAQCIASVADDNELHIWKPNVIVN

B1: 40 bp dsDNA, Alexa488 (dsDNA)
DNA 1: ATCAATATCCACCTGCAGATACTACCAAAAGTGTATTTGG
DNA 2: CCAAATACACTTTTGGTAGTATCTGCAGGTGGATATTGAT
On to B1, for which the entries for the “apparent K (half saturation)” value in data set [1], in data set [3] and in data set [4] were 1100 ± 200 nM, 700 ± 100 nM and 2800 ± 400 nM, respectively. Besides, in data set [2], the binding result was “no binding”.

(Values after article PMC10942606.)
